The record followed here is publication doi:10.1101/068262 (bioRxiv, 2016).

Residue numbers refer to the chain shown, from its start. Numbers in names are those of the source. No end group written: not given here. Some results are limits rather than exact numbers.

Assay [1] concerns the target ELL2^Occ–(Gly-Ser)4-AFF4^ELLBow fusion (UniProt Q9UHB7). The experiment in a line: SEC. For orientation: In gel filtration, larger molecules generally elute earlier.
Assay [2] has as its target Sumo-ELL2(519-640) (human) (UniProt O00472). As to the kind of experiment: fluorescence polarisation.
In the next assay the target is GST-ELL2 (519-640) H559E (human, UniProt O00472 519-640, H559E). As to the kind of experiment: pull-down.
The target of another assay is GST-ELL2 (519-640) H608E (human, UniProt O00472 519-640, H608E). The experiment in a line: pull-down.
The next assay deals with GST-ELL2 (519-640) N619A (human, UniProt O00472 519-640, N619A). The experiment in a line: pull-down.
A further assay addresses GST-ELL2 (519-640) K625T (human, UniProt O00472 519-640, K625T). The experiment in a line: pull-down.
Another assay deals with Sumo-ELL2(519-640) (human, UniProt O00472 519-640). As to the kind of experiment: fluorescence polarisation.

In general, stoichiometry N refers to the number of molecules, sites or subunits per partner or assembly. What is called Kd is the free concentration of one partner at which half of the binding sites on the other are occupied at equilibrium, for simple one-to-one binding. Read a high Kd as weaker binding.

Sumo-ELL2(519-640), sequence (O00472 519-640): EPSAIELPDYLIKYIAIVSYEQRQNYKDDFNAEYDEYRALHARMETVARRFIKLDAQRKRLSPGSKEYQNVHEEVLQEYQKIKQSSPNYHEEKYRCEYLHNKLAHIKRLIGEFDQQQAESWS
GST-ELL2 (519-640) H608E, sequence (O00472 519-640 H608E): as the sequence (O00472 519-640) above, with H90E counted along it
GST-ELL2 (519-640) K625T, sequence (O00472 519-640 K625T): as the sequence (O00472 519-640) above, with K107T counted along it
GST-ELL2 (519-640) H559E, sequence (O00472 519-640 H559E): as the sequence (O00472 519-640) above, with H41E counted along it
Sumo-ELL2(519-640) (human), sequence (O00472 519-640): as the sequence (O00472 519-640) above
GST-ELL2 (519-640) N619A, sequence (O00472 519-640 N619A): as the sequence (O00472 519-640) above, with N101A counted along it

Turning to “ELL2^Occ–(Gly-Ser)4-AFF4^ELLBow fusion (from UniProt Q9UHB7 301-351)”, the stoichiometry N in assay [1] came to 2.
Regarding “AFF4^ELLBow α1 mutant D317P/E317P (301-351) (from UniProt Q9UHB7 301-351) (peptide)”, the fold reduction of affinity against wild type in assay [2] stood at 10 fold.

B1: His6-tagged wild-type AFF4^ELLBow (AFF4 301-351) (peptide)
chain: PSQPLDASASGDVSCVDEILKEMTHSWPPPLTAIHTPCKTEPSKFPFPTKE
As for B1, the binding result with GST-ELL2 (519-640) H559E, in the assay with GST-ELL2 (519-640) H608E, with GST-ELL2 (519-640) N619A and with GST-ELL2 (519-640) K625T was “binds” throughout. This molecule also displayed a Kd in the assay with Sumo-ELL2(519-640) of 86 nM.

B2: AFF4^ELLBow I319D/L320D/M323D (301-351) (peptide)
chain: B1 chain with I19D, L20D, M23D
B2: the dissociation constant Kd in the assay with Sumo-ELL2(519-640) was more than 3000 nM.

B3: AFF4^ELLBow I319D/L320D (301-351) (peptide)
chain: B1 chain with I19D, L20D
For the molecule B3, in the assay with Sumo-ELL2(519-640), the “fold reduction of affinity against wild type” value (from here on “fold reduction of affinity”) was more than 25 fold.

B4: AFF4^ELLBow M323D (301-351) (peptide)
chain: B1 chain with M23D
In the case of B4, the “fold reduction of affinity” value with Sumo-ELL2(519-640) is more than 25 fold.

B5: AFF4^ELLBow I334D (301-351) (peptide)
chain: B1 chain with I34D
Regarding B5, in the assay with Sumo-ELL2(519-640), the “fold reduction of affinity” value stood at 8 fold.

B6: AFF4^ELLBow L331D (301-351) (peptide)
chain: B1 chain with L31D
With B6, the “fold reduction of affinity” value with Sumo-ELL2(519-640) was approximately 20 fold.

B7: AFF4^ELLBow P342D (301-351) (peptide)
chain: B1 chain with P42D
On to B7, for which the “fold reduction of affinity” value with Sumo-ELL2(519-640) was 3 fold.

B8: AFF4^ELLBow E322H (301-351) (peptide)
chain: B1 chain with E22H
Take B8: in the assay with Sumo-ELL2(519-640), the “fold reduction of affinity” value is less than 2 fold.

B9: AFF4^ELLBow W327D (301-351) (peptide)
chain: B1 chain with W27D
For the molecule B9, the “fold reduction of affinity” value with Sumo-ELL2(519-640) amounted to 4 fold.

B10: AFF4^ELLBow F345D/F347D (301-351) (peptide)
chain: B1 chain with F45D, F47D
On to B10, for which the “fold reduction of affinity” value with Sumo-ELL2(519-640) was less than 2 fold.

B11: AFF4^ELLBow double 328-329 Pro-Gly mutant (301-351) (peptide)
chain: B1 chain with P28G, P29G
Take B11: in the assay with Sumo-ELL2(519-640), the “fold reduction of affinity” value was found to be 3 fold.
Regarding EILKEMTHSWPPPLTAIHTPSTAEPSKFPFPTK (also: fluorescent label, site not given here) [fluorescently labeled AFF1 peptide (residues 358-390)], in the assay with Sumo-ELL2(519-640), the binding result is reported as “binds”.
